For series [1], the target named is T1, M2-1(58-177) core domain (human respiratory syncytial virus (hRSV, strain Long per Fig S7)) (UniProt P04545).
T1 sequence: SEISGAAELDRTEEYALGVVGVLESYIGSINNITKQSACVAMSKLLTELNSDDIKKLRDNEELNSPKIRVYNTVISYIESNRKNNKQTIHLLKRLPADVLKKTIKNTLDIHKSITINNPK
Description: NMR titration. The note with it: NMR: 50-60 µM protein, 293 K, 14.1 T, 1:1 model, buffer/salt/pH not in material; EMSA: 100 µM GST fusion eluted with GSH, ~50 µM tRNA, 1 h room temperature …. For orientation: Mobility shift assays separate free from complexed probe on a gel.

Series [2] has as its target RSV phosphoprotein P, full-length (P_(1–241)) (UniProt P12579). Description: GST pull-down. The conditions noted are these: parent: est. 100; read off a plot.
Series [3] deals with RSV phosphoprotein P, full-length (P_(1–241)) (human respiratory syncytial virus (strain Long)) (UniProt P12579). Description: ITC; M2-1_(58–177) (335 µM, 20 injections of 2 µL) injected into P (33 µM) in the cell; 1× PBS; 20°C. (Isothermal titration calorimetry measures the heat released or taken up as one component is titrated into another.)
Series [4] has as its target GST-M2-1 R126D (full-length) (human respiratory syncytial virus (strain Long)). Description: pull-down; ~25 µM GST-M2-1 (or GST) on Glutathione-Sepharose 4B beads in PBS with a 3-fold molar excess of purified P, 1 h at 20°C; washed with PBS; SDS-PAGE, Coomassie blue, bands quantified with ImageJ.
Series [5] deals with GST-M2-1 T160D (full-length) (human respiratory syncytial virus (strain Long)). The series is described as above.
Series [6] concerns the target GST-M2-1 N163D (full-length) (human respiratory syncytial virus (strain Long)). Described as above.
Series [7] concerns the target GST-M2-1 L148A (full-length) (human respiratory syncytial virus (strain Long)). The series is described as above.
Series [8] has as its target GST-M2-1 T130D (full-length) (human respiratory syncytial virus (strain Long)). The series is described as above.
Another series has as its target T2, M2-1(58-177) core domain (human respiratory syncytial virus …, UniProt P04545 58-177).
T2 sequence: T1 sequence
Description: NMR titration; NMR: 50-60 µM protein, 293 K, 14.1 T, 1:1 model, buffer/salt/pH not in material; EMSA: 100 µM GST fusion eluted with GSH, ~50 µM tRNA, 1 h room temperature, 1.5% agarose, 1x Tris-Glycine, 4°C. The note with it: protein: recombinant, tags: N-terminal Gly-Ser left after thrombin cleavage of GST.

[9] abbreviates: predicted hairpin, poly-U loop, 2-3 bp stem.

One may read the Kd as the equilibrium constant for the complex coming apart. Consider AGUUAUAUAAAA / UUUUAUAUAACU [GE_F-ds], for which the Kd in [1] came to 4.5 µM.
For “GST-M2-1 (full-length M2-1 fused to GST), WT K92D”, the percent of parent in series [2] came to 54 % WT.
On to “GST-M2-1 (full-length M2-1 fused to GST), WT K150D”, for which, in [2], the percent of parent stood at 63 % WT.
With “GST-M2-1 (full-length M2-1 fused to GST), WT R151D”, the percent of parent in [2] was 44 % WT.
For orientation: stoichiometry N means the number of molecules, sites or subunits per partner or assembly. In series [3], “RSV M2-1_(58–177) core domain (domain or fragment)” displayed a Kd of 3 µM and a stoichiometry N of 1.
Consider “RSV phosphoprotein P, full-length (P_(1–241)) (from UniProt P12579 1-241) (natural protein)”, for which the decrease in P binding against WT in [4], in [5], in [6], in series [7] and in series [8] was over 50% in each case.
In the case of CCAAAAAAAU (ssRNA) [short A-rich (short polyA)], the dissociation constant (Kd) with M2-1(58-177) core domain is 22 ± 6 µM.
As for GCGCUUUUUUAAGCGC (structured_RNA) [UGA2], the Kd in the series with M2-1(58-177) core domain (hairpin, 5 bp, U-stretch) was determined as 60 ± 10 µM.
Consider UUUUUAAUUAACU (ssRNA) [GE_SH-neg], for which the equilibrium dissociation constant (Kd) with M2-1(58-177) core domain was 75 ± 15 µM.
With ACGCGAAAAAAU (ssRNA) [leader-pos], the dissociation constant Kd with M2-1(58-177) core domain (partial self-association (two G-C and U-A pairs) seen by NMR) turned out to be 2.5 ± 1.5 µM.
Consider CGCAUUUUUUCGCGU (ssRNA) [leader-neg], for which the Kd with M2-1(58-177) core domain (setting [9]) was 75 ± 15 µM.
Consider UUUUAUAUAACU (ssRNA) [GE_F-neg], for which the dissociation constant (Kd) in the series with M2-1(58-177) core domain was found to be 85 ± 25 µM.
Regarding UAUUUGCCCC (ssRNA) [GS-neg], the dissociation constant Kd in the series with M2-1(58-177) core domain turned out to be 110 ± 15 µM.
As to CCCAUUUUUUUGGUU (ssRNA) [long U-rich], the Kd with M2-1(58-177) core domain (setting [9]) is 125 ± 35 µM.
Consider TTTTATATAACT (ssDNA) [GE_F-DNA], for which, in the series with M2-1(58-177) core domain, the equilibrium dissociation constant (Kd) was 250 ± 70 µM.

The values above are taken from article PMC3364950, “Structure and Functional Analysis of the RNA- and Viral Phosphoprotein-Binding Domain of Respiratory Syncytial Virus M2-1 Protein”.
